From patent publication EP2500357A2 (Abbott Laboratories, dated 2012) come the findings set out here.

The target in assay [1] is T1, recombinant human IL-1α (human, UniProt P01583 113-271).
T1 sequence (looked up): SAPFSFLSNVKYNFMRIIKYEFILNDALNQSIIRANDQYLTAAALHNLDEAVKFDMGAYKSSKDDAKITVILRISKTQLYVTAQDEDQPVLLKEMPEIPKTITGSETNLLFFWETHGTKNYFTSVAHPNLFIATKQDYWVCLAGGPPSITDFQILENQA
The experiment in a line: cell-based or functional assay.

Assay [2] has as its target T2, recombinant human IL-1β (human, UniProt P01584 117-269). The experiment in a line: cell-based or functional assay.
Assay [3] concerns the target T1, recombinant human IL-1α. The experiment in a line: cell-based or functional assay. This is another data set of the same source.
The target in assay [4] is T2, recombinant human IL-1β. The experiment in a line: cell-based or functional assay. This is another data set of the same source.
Assay [5] concerns the target T1, recombinant human IL-1α. The experiment in a line: SPR (Biacore), hIL-1α as 1st antigen. A general note: In SPR one partner is held on a chip, and binding of the other changes the refractive index at the surface.
Assay [6] addresses T1, recombinant human IL-1α. Description: SPR (Biacore), hIL-1α as 2nd antigen.
The target of assay [7] is T2, recombinant human IL-1β. Description: SPR (Biacore), hIL-1β as 1st antigen.
The target in assay [8] is T2, recombinant human IL-1β. The experiment in a line: SPR (Biacore), hIL-1β as 2nd antigen.
Assay [9] addresses T3, human IL-18 (human, UniProt Q14116 37-193). Description: cell-based or functional assay.
Assay [10] addresses T3, human IL-18. The experiment in a line: cell-based or functional assay. This is another data set of the same source.

B1: hIL-1a/bDVD1-Ig (bispecific antibody, human IgG1, kappa)
heavy: not shown
light: NIVLTQSPASLAVSLGQRATISCRASESVDSYGNSYMHWYQQKPGQPPKLLIYLASNLESGVPARFSGSGSRTDFTLTIDPVEADDAATYYCQQNNEDPFTFGSGTKLEIKRNIQMTQTTSSLSASLGDRVTISCRASQDISNCLNWYQQKPDGTVKLLIYYTSRLHSGVPSRFSGSGSGTDYSLTISNLEQEDIATYFCQQGKTLPYAFGGGTKLEINRTVAAPSVFIFPPSDEQLKSGTASVVCLLNNFYPREAKVQWKVDNALQSGNSQESVTEQDSKDSTYSLSSTLTLSKADYEKHKVYACEVTHQGLSSPVTKSFNRGEC
notes: No linker between the variable domains; also called hIL-1α/βDVD1-Ig
On to B1, for which the “dual-inhibition activity, IL-8 synthesis by MRC-5 cells with both IL-1α and IL-1β present” value in assay [1] and in assay [2] was 2.2 nM each time. Besides, the “neutralizing activity against hIL-1α relative to the chimeric Abs” value in assay [1] amounted to 3 fold. Besides, the entries for the “Potency (IC50), MRC-5 bioassay” value in assay [3] and in assay [4] were 2.3 nM and 3.1 nM, respectively. The figures for the “Stoichiometry hIL-1α:DVD-Ig” value in [5] and in assay [6] were 2.3 and 1.1, respectively. Further, the “Stoichiometry hIL-1β:DVD-Ig” value in assay [7] is 1.5; in assay [8], 1.

B2: ABT325 (anti-human IL-18 mAb) (antibody, V domains shown)
VH: EVQLVQSGTEVKKPGESLKISCKGSGYTVTSYWIGWVRQMPGKGLEWMGFIYPGDSETRYSPTFQGQVTISADKSFNTAFLQWSSLKASDTAMYYCARVGSGWYPYTFDIWGQGTMVTVSS
VL: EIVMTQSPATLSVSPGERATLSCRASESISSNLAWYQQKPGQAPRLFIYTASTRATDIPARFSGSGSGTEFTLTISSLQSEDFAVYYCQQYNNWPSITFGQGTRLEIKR
On to B2, for which the “IC50, KG-1 bioassay (IFN-γ production)” value in assay [9] was found to be 0.3 nM. For the same molecule, the “Potency (IC50), KG-1 bioassay (IL-18)” value in assay [10] is 0.0687 nM.
